What was measured:
[1] = molecular target: humanized variant of IPN002 (hu-IPN002); assay: competition ELISA; competitor: biotin-Tau 15-44 on hu-IPN002
[2] = molecular target: 383 amino acid recombinant tau (UniProt P10636); assay: solid phase ELISA, biotin-rTau383, A450
[3] = molecular target: 383 amino acid recombinant tau (UniProt P10636); assay: ELISA, serially diluted hu-IPN002 with biotin-rTau383
[4] = molecular target: 383 amino acid recombinant tau (UniProt P10636); assay: ELISA binding assay, A450
biotin-phospho Tau 15-24 = assay: ELISA, serially diluted hu-IPN002 with biotin-Tau 15-24 PHOSPHO
[5] = molecular target: 383 amino acid recombinant tau (UniProt P10636); assay: solution phase ELISA, biotin-rTau383, A450
[6] = molecular target: 383 amino acid recombinant tau (UniProt P10636); assay: ELISA, solid phase, biotin-rTau383
[7] = molecular target: 383 amino acid recombinant tau (UniProt P10636); assay: peptide binding ELISA (A450), hu-IPN002 titrated; table under the curves
biotin-Tau 15-24 = assay: ELISA, serially diluted hu-IPN002 with biotin-Tau 15-24
[8] = molecular target: 383 amino acid recombinant tau (UniProt P10636); assay: ELISA, solution phase, biotin-rTau383
[9] = molecular target: 383 amino acid recombinant tau (UniProt P10636); assay: peptide binding ELISA (A450), hu-IPN002 titrated

Chain of 383 amino acid recombinant tau (P10636 other isoform, or with tags, fused parts or gaps limits assumed): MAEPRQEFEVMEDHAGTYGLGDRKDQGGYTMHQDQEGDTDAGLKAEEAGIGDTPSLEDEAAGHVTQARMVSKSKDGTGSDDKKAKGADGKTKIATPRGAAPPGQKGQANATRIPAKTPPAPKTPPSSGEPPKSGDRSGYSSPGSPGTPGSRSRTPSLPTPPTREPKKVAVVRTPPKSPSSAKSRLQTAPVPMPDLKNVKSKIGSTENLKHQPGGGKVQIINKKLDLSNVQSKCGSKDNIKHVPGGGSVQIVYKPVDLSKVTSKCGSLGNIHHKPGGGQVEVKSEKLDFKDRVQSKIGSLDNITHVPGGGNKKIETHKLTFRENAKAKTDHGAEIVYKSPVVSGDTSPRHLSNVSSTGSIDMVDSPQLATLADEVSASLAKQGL
Chain of Peptide 2 (Tau amino acids 15-44) (peptide): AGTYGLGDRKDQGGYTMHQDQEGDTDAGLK

Substance | IC50 (read off the curve) [1] | EC50 (read off the curve) [2] | Kd [3] | EC50 (read off the curve) [4] | Kd [4] | Kd (biotin-phospho Tau 15-24) | EC50 (read off the curve) [5] | Kd [6] | Kd [7] | Kd (biotin-Tau 15-24) | Kd [8] | EC50 (read off the curve) [9]
Peptide 2 (Tau amino acids 15-44) | 100 nM | – | – | – | – | – | – | – | – | – | – | –
humanized variant of IPN002 (hu-IPN002) (antibody) | – | 0.1 nM | 0.283 nM | 0.3 nM | 0.288 nM | 0.768 nM | 0.1 nM | 0.107 nM | 0.288 nM | 0.754 nM | 0.114 nM | 0.3 nM

Reference: patent US20160122421A1
